Test results from US11667688B2, “Glucagon derivative and a composition comprising a long acting conjugate of the same” (HANMI PHARM. CO., LTD., priority 2015, dated 2023).
Bridge positions count the residues as written; N and C are the ends. Square brackets hold non-standard residues; d marks the D form. Ends that are not written are not given here. Aib = CC(C)(N)C(=O)O

How the values were obtained:
[1] = when taken for one year; cited from earlier work
human glucagon receptors = target: T1, human glucagon receptors (Homo sapiens, UniProt P47871); assay: cAMP activity of glucagon derivatives in CHO cell line transfected with human glucagon receptor (LANCE cAMP kit); assay type: cell-based; conditions: cAMP EC50 compared with that of native glucagon; CHO cells with human glucagon receptor
T1 construct: a region corresponding to Open Reading Frame (ORF) in the cDNA; expressed in transfected cells
Procedure: PCR was performed using a region corresponding to Open Reading Frame (ORF) in the cDNA (OriGene Technologies, Inc., USA) of human glucagon receptor gene as a template along with the following forward and reverse primers (SEQ ID NOS: 47 and 48, respectively), which include each of the EcoRI and XhoI restriction sites.
The PCR product was cloned into a known animal cell expression vector, x0GC/dhfr, to prepare a recombinant vector x0GC/GCGR.
CHO DG44 cell line cultured in DMEM/F12 (10% FBS) medium was transfected with the recombinant vector x0GC/GCGR using LIPOFECTAMINE®, and cultured in a selection medium containing G418 (1 mg/mL) and methotraxate (10 nM).
Specifically, the transfected cell line was subcultured 3 to 4 times a week, aliquoted into a 384-well plate in an amount of 6×10^3 cell lines/well, and cultured for 24 hours. Native glucagon and glucagon derivatives were suspended in Hank's balanced salt solution (HBSS) buffer containing 0.5 mM of 3-isobutyl-1-methylxanthine (IBMX), 0.1% bovine serum albumin (BSA), and 5 mM 4-(2-hydroxyethyl)-1-piperazineethanesulfonic acid (HEPES) with the culture cells, at concentrations of 200 nM and 1600 nM, respectively, continuously subjected into a 4-fold dilution 10 times, applied to a cAMP assay kit (LANCE cAMP 384 kit, PerkinElmer), and added to the cultured cells, and their fluorescence value was measured.

T1 sequence (P47871 26-477): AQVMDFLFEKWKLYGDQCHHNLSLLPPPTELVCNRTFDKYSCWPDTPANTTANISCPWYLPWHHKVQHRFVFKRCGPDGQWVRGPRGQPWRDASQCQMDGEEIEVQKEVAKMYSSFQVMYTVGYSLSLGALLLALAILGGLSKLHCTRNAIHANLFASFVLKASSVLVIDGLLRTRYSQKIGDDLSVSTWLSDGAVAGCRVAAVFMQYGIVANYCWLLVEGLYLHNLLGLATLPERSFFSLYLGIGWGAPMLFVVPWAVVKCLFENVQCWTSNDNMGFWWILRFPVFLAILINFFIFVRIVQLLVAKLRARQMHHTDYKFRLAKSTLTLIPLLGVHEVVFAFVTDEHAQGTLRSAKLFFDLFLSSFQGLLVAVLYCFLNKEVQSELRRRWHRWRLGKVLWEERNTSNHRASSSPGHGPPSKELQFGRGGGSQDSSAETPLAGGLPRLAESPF

Molecule | weight loss [1] | In vitro Activity (Relative Activity of SEQ ID NO: 1, %) (human glucagon receptors) [%]
CCCCCCCCCCC[C@@H](C[C@@H]1OC(=O)[C@H]1CCCCCC)OC(=O)[C@H](CC(C)C)NC=O [ORLISTAT] | about 4 kg | –
YXQGTFVSDYSKYLDECRAKDFVQWLMNT (Y[Aib]QGTFVSDYSKYLDECRAKDFVQWLMNT; bridge 16-20) [SEQ ID NO: 27, glucagon derivative, X = Aib] | – | 93.6
YXQGTFVSDYSKYLDERRAKDFVQWLMNTC (Y[Aib]QGTFVSDYSKYLDERRAKDFVQWLMNTC; bridge 16-20) [SEQ ID NO: 40, glucagon derivative, X = Aib] | – | 40.8
